In assay [1] the test system is P. renovo. The assay can be described thus: Formate utilization, HPLC analysis of culture supernatant. The format is cell-based, Picochlorum renovo. The settings on record: for formate consumption: 10 mM sodium formate, evaporative losses taken into account; for formate consumed from the culture media: 25 mM formate, 2% CO2, after 85 hours of cultivation. As to the method:
Six μL of filtered cell-free supernatant was used for injection into the Bio-Rad HPX-87H (300×7.8 mm) ion exchange column. Elution of the organic acid was carried out with 0.01 N sulfuric acid at a flow rate of 0.6 mL per min. The column temperature was maintained at 55° C.

The subject of assay [2] is P. renovo. The experiment in a line: Growth of FDH-expressing P. renovo in media supplemented with formate. The format is cell-based, Picochlorum renovo. As to conditions: for growth in media supplemented with formate: 25 mM formate, 2% CO2, pH 6.0; for growth on sodium formate: up to 75 mM sodium formate, 2% CO2, pH=6 Bis-Tris, 5 mM NH4Cl. As to the method: Cultures were mixed via shaking (170 rpm) at 33° C., 2% CO2, and 125 uE cool white LED lighting.
FDH variants utilized were mutated from the Pseudomonas sp. 101 FDH, specifically NAD+ utilizing variant (A198G) and NADP+ utilizing variant (A198G/D221Q/C255A/H379K/S380V). FDH transformation vectors were prepared by Twist Bioscience, cloning a ribosomal binding site ([…]) and codon optimized FDH downstream of the ptxD selectable marker in our previously described chloroplast transformation vector. P. renovo transformation was carried out as described previously, with the exception that Critter Technology binding and precipitation buffers were used according to the manufacturers recommendations to bind DNA (plasmid prepared by Twist Bioscience) onto the gold microcarriers for biolistic transformation.

B1: NAD+-utilizing FDH variant: Pseudomonas sp. 101 formate dehydrogenase mutant A198G, SEQ ID NO: 30, expressed in P. renovo chloroplast (protein)
chain: MAKVLCVLYDDPVDGYPKTYARDDLPKIDHYPGGQTLPTPKAIDFTPGQLLGSVSGELGLRKYLESNGHTLVVTSDKDGPDSVFERELVDADVVISQPFWPAYLTPERIAKAKNLKLALTAGIGSDHVDLQSAIDRNVTVAEVTYCNSISVAEHVVMMILSLVRNYLPSHEWARKGGWNIADCVSHAYDLEAMHVGTVGAGRIGLAVLRRLAPFDVHLHYTQRHRLPESVEKELNLTWHATREDMYPVCDVVTLNAPLHPETEHMINDETLKLFKRGAYIVNTARGKLCDRDAVARALESGRLAGYAGDVWFPQPAPKDHPWRTMPYNGMTPHISGTTLTAQARYAAGTREILECFFEGRPIRDEYLIVQGGALAGTGAKVYSKGNATGGSEEAAKFKKAV
modifications: Pseudomonas sp. 101
As to B1, the “formate concentration in culture” value in assay [1] (5 mM formate added (initial 6.2 mM), ambient CO2 (0.04%), after 312 hours, HPLC) is given as 1.7 mM. The “utilization of the added formate” value in assay [1] (5 mM formate, ambient CO2 (0.04%), 312 hours) is on record as 74+/−2%. The formate consumption in assay [1] (2% CO2, at 85 hours) is on record as 77±2%; in assay [1] (2% CO2, at 132 hours), 88±1%. Further, in assay [1], the “formate consumed from the culture media” value stood at 48±1%. For the same molecule, the “growth when supplemented with formate” value in assay [2] (5 mM formate, ambient CO2 (0.04%), versus no formate supplementation) is recorded as “enhanced growth”. Further, in assay [2] (5 mM formate, ambient CO2 (0.04%), versus unsupplemented wild-type), the “optical density relative to wild-type” value is reported as greater than 3.8 ×. For the same molecule, the culture density result in assay [2] (10 mM formate compared to 25 mM formate, 2% CO2) was “higher culture density”. In addition, the “growth in media supplemented with formate” value in assay [2] is “Growth in media supplemented with 25 mM formate was observed”.

B2: SV26: Candida boidinii FDH (C23S), SEQ ID NO: 14 (protein, listed as Candida boidinii)
chain: MKIVLVLYDAGKHAADEEKLYGSTENKLGIANWLKDQGHELITTSDKEGETSELDKHIPDADIIITTPFHPAYITKERLDKAKNLKLVVVAGVGSDHIDLDYINQTGKKISVLEVTGSNVVSVAEHVVMTMLVLVRNFVPAHEQIINHDWEVAAIAKDAYDIEGKTIATIGAGRIGYRVLERLLPFNPKELLYYDYQALPKEAEEKVGARRVENIEELVAQADIVTVNAPLHAGTKGLINKELLSKFKKGAWLVNTARGAICVAEDVAAALESGQLRGYGGDVWFPQPAPKDHPWRDMRNKYGAGNAMTPHYSGTTLDAQTRYAEGTKNILESFFTGKFDYRPQDIILLNGEYVTKAYGKHDKK
Take B2: in assay [2], the “growth on sodium formate” value is listed as “able to grow”.

B3: SV27: Candida boidinii FDH (C23S/C262A), SEQ ID NO: 16 (protein, listed as Candida boidinii)
chain: MKIVLVLYDAGKHAADEEKLYGSTENKLGIANWLKDQGHELITTSDKEGETSELDKHIPDADIIITTPFHPAYITKERLDKAKNLKLVVVAGVGSDHIDLDYINQTGKKISVLEVTGSNVVSVAEHVVMTMLVLVRNFVPAHEQIINHDWEVAAIAKDAYDIEGKTIATIGAGRIGYRVLERLLPFNPKELLYYDYQALPKEAEEKVGARRVENIEELVAQADIVTVNAPLHAGTKGLINKELLSKFKKGAWLVNTARGAIAVAEDVAAALESGQLRGYGGDVWFPQPAPKDHPWRDMRNKYGAGNAMTPHYSGTTLDAQTRYAEGTKNILESFFTGKFDYRPQDIILLNGEYVTKAYGKHDKK
For the molecule B3, the “growth on sodium formate” value in assay [2] was “able to grow”.

B4: NADP+-utilizing FDH variant: Pseudomonas sp. 101 formate dehydrogenase mutant A198G/D221Q/C255A/H379K/S380V, SEQ ID NO: 32, expressed in P. renovo chloroplast (protein)
chain: MSDPTLAQPHLVEVHTTLETVVTTHNHNHRPSINASGEKKKIVGVFYKGNEYAKLNPNFVGCVEGALGIREWLESQGHQYIVTDDKEGPDSELEKHIPDAHVIISTPFHPAYVTAERIKKAQKLELLLTAGIGSDHVDLKAAAAAGLTVAEVTGSNVVSVAEDELMRILILMRNFLPGYHQAVKGEWNVAGIAHRAYDLEGKTVGTVGAGRIGKLLLQRLKPFNCNLLYFDRLRIDPELEKEIGAKFEEDLDAMLPKCDVIVINTPLTEQTRGLFDKNRIAKCKKGVLIVNNARGAIADTQAIADACSSGHVAGYSGDVWDPQPAPKDHPWRYMPNHAMTPHISGTTIDAQLRYAAGVKDMLDRHFKGEDFPEQNYIVKEGQLASQYR
modifications: Pseudomonas sp. 101
Consider B4, for which the “formate consumed from the culture media” value in assay [1] was “no formate utilization”. In addition, the “growth in media supplemented with formate” value in assay [2] was “no growth”; in assay [2] (listed as NADP+ utilizing FDH variant) it was “did not grow”.

For the origin of these results see patent US20230357704A1 (Alliance for Sustainable Energy, LLC, priority 2022, published 2023).
